Experimental data from patent US20230204594A1, “SYSTEMS AND METHODS FOR REAL-TIME CELLULAR DRUG-TARGET ENGAGEMENT” (NERD BIO LLC, priority 2021, published 2023).

Key:
Experiment in all cases: cell-based or functional assay
[1] = biological target: MTH1 target polypeptide with a 10 amino acid spacer and a carboxy terminal S-tag acceptor peptide
[2] = biological target: MTH1-S-tag fusion protein with no linker between MTH1 and the S-tag peptide
[3] = biological target: MTH1 target polypeptide with a 3 amino acid spacer and a carboxy terminal S-tag acceptor peptide

Sequence of His tagged RNase donor protein (S protein) (P61823 other isoform, or with tags, fused parts or gaps limits assumed): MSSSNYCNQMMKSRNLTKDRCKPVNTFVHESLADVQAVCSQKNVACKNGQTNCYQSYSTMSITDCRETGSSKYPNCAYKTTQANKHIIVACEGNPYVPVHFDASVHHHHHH

- S protein concentration at which the fluorescent signal starts to saturate [1]: 1 to 2 ng/µL
- S protein concentration at which the fluorescent signal starts to saturate [2]: 1 to 2 ng/µL
- S protein concentration at which the fluorescent signal starts to saturate [3]: 1 to 2 ng/µL
Substance: His tagged RNase donor protein (S protein) (from UniProt P61823 47-150)
